From a protein production outcome set (Wang et al. 2014)

Assay: label from the status in PepcDB records

With “MNHEAVQNYYGEVLQSSADLQTNACCTPDAVPAHLKPVLGKLHDEVMARYYGCGLIAPLALEGARILDLGCGAGRDVYALSALVGESGAVVGVDMTPAQLEVAQAHRAYHAEVFGHAAPNTEFHQGYIEKLDDLPLKPGSFDIIVSNCVLNLATDKAAVLRGAQRLLKPGGEMYFSDVYADRRIPEALARDEVLYGECLSGALYWNDFLSLARGAGFGDPRMVESRLLTIENPELERRVGPIRFLSATYRLFNLAGLEPDCEDYGQAVIYKGTVPHAPHEFVLDDHHVIETGKVFPVCGNSWRMLAESRFAPHFQFIGDFSTHYGIFAGCGGASPFNGLSPVAPAASGGCC” the protein production was “failed”.

For “MSVTFSYLAETDYPVFTLGGSTADAARRLAASGCACAPVLDGERYLGMVHLSRLLEGRKGWPTVKEKLGEELLETVRSYRPGEQLFDNLISVAAAKCSVVPLADEDGRYEGVVSRKRILGFLAERI”, the protein production was “not failed”.

For “MGESGLTNEIDELHEEVTAVSAPGVKPPAQAGRRNIWLKVLISATAFYILLLVALLVTGNPNLFPSLVMVGNFTVPVAYVAFLYERKNFSRLKMPIVSLAFLYGGLVGIIATSFIGPLFITQFNPGDILAVGLVEEFAKILGVVVIARRRRHVLEMDGLILGAAVGMGFAALESTGYAFTAFLISNGSISAVLEVTLFRGLLAPLGHGTWTAILASVLFRESRDCCFRVNLRVIGAYLLVSILHAMWNGLSLVLAPFTGLGLGAIITWALVGFIGLYVLWRRWREAVRLKPVLLPERENV”, the protein production was “failed”.

For “MQYIKIHALDNVAVALADLAEGTEVSVDNQTVTLRQDVARGHKFALTDIAKGANVIKYGLPIGYALADIAAGEHVHAHNTRTNL”, the protein production was “not failed”.

With “MKRLTPYSWLILIIFSSCLTGNKVASTDKQIESLLSQMTLEEKIGMLHSNTMFSSTGVPRLGIPDLHYSDGPHGVRFEGVANGWESARWDNDACSYLPALSALASTWNRDLAQLYGEVLGAECKARGKHVSLAPGVNIHRSLLNGRNWEYFSEDPFFSGELAVPYIQGVQSQGVASCVKHFALNSQAYNQYKVSVEVDERTLHEIYLPAFEAAIQRGGAMAAMAAYNKVRGLWCTESPYLLDTLLRDELGFDGLVVSDWNAVHNTERTALCGMDVEMGTSIKENGKYAFNKYYLADPLLKKVRNGEIPEEAVNKKVRNILKLMIRLDLIGQAPYDTTGMAAKLAIPAHTKAAREIAEESLVLLKNSKDMLPLDPAQYKNVAVIGANATEVFAAGGGSTKLKAKYEVTPLEGLQNLLDGKARIEYAPGYQLSKKAYKVGHWFTNEFDKSDEELYKKAINTAAQAELVIYIGGTSHEHGSDCEGYDKPNLKLPYQQDRLLKGILEVNPNTVVVLISGGPVEIGEWYNDATALLHGSFLGMEGGNALARTLFGEVNPSGKLTTTWCKRLEDMPDHVFGEYPGINDTVRFKEGLMVGYRYFDTYRVVPLFEFGYGLSYTTFTYSNIKMKPVWKDSDTEFAVSFTVTNTGKRYGQEIAQLYLHQNKCSVERPFKELKGFTKVGLKPGESKQVTIKLPRRALQYYDTESKRWKDEPGMFTVLIGASSRDIKLQKDFELKK” the protein production was “failed”.

For “SLEPAQANMDISTGHMILAYMEDHLRNRDRLAKEWQALCAYQAEPNTCATAQGEGNIKKNRHPDFLPYDHARIKLKVESSPSRSDYINASPIIEHDPRMPAYIATQGPLSHTIADFWQMVWESGCTVIVMLTPLVEDGVKQCDRYWPDEGASLYHVYEVNLVSEHIWCEDFLVRSFYLKNVQTQETRTLTQFHFLSWPAEGTPASTRPLLDFRRKVNKCYRGRSCPIIVHCSDGAGRTGTYILIDMVLNRMAKGVKEIDIAATLEHVRDQRPGLVRSKDQFEFALTAVAEEVNAILKALPQ”, the protein production was “not failed”.

With “VAGKVEARKAALREKLIDLAEAQIEAEGLASLRARELARQADCAVGAIYTHFQDLNALTLEVNGRTFARLGAAVGAVVADGQDDHPNERLIAMSHAYLAFAREHPKLWRALFDVEMRSDGPVPQWYGHAMAQLFSYITTPLAKIFPESDDAELDLMTRTLFSSVHGIVLLGLENRISGVPGEQLKTMIRLLLEQVGR” the protein production was “not failed”.

For “MRRLALLFPVLALLVGVWAFPLLGPLFRHGAVPNPFALKEPFTLLVYGSSPEYVEYHKRAPERFRGLADTILLVRLDPGANRVVVLSVPRDVWVLLPGHGWHKVNAASPLGGPELMKEAVARITGVRPDRYVVVSLEALRRGVDALGGVRVCVEKPMRYQDQAAGLVIDLEPGCQVLSGAQAEGYLRFRKDALGDIGRIQRQQAFFHALKDQLFSLPGLLRLPRAVAAVEPYVATDLTRGEKGALLGFLLRRPAFVSLLLPGRFAGGWAVDEAAWARLRAVYFEDREAWGEALAGKRAVVLFGPGQGALAQEAAERLKALGLSVSLRELALAPERTEVLENGPGRLAQALGEALGVPYRVSGEAALGADLTLRLGREGLPR”, the protein production was “failed”.

In the case of “MVINIRRSRPDEGDKLTAIWCRSVDATHDFLTKAYRKELEEMVRAFLPEAPLWVAVSTEDQPIAFMLLTGDHMDALFVDPDVRGCGVGKLLIEHALSLTPKLTTNVNEQNEQAVGFYQKMGFRVTGRSETDDLGQPYPLLNLMYEQQAEADYD”, the protein production is reported as “not failed”.

For “MFTALLFTLGIAAATSFNASAIDNHNNKNKLPDIGISGYSVLSTDKELQIGKAMMRQLRASQPLIQDPVLIEYINHLGNSLVKNAQGVNYAFEFFLINNNELNAFAFFGGHVGIHSGLITTADTESELASVIAHEISHVTQRHLARRLESQSQTQGLTMAAMLSSVLITLVNPTVGIAALSASMAVTQQASINYTRGNEKEADRVGIALLASSNYDPQGAASFFSKMSTKYRYASKPPAMLLTHPLPESRIADARQRALNYPARPLPPSLGFELTKARLKSRYQGEAKSNISFFKLQLEKKRYAIKAAAQYGLALSYFENKQTSEALQLLEMLEKNDKDNLFYVDALTDVYIANNQANKAIKMLERLNLFMPNNQVVSLNYANALLSVKEYDLAAQILQDFLLVNPGNFIAYDILTTLYRTQEKTGLMHMSKAEVYALLGAYPKAVDELQTSYAFLDEQPLMQKRVKARILQLQEQENRLKRL”, the protein production was “failed”.

For “ELQVIQPEKSVSVAAGESATLRCAMTSLIPVGPIMWFRGAGAGRELIYNQKEGHFPRVTTVSELTKRNNLDFSISISNITPADAGTYYCVKFRKGSPDDVEFKSGAGTELSVRAKPSAPVVSG”, the protein production was “not failed”.

In the case of “MASTVSVQPGRIRILKKGSWQPLDQTVGPVVYWMFRDQRLKDNWALIHAVDLANRTNAPVAVVFNLFDQFLDAKARQLGFMLKGLRQLHHQIDSLQIPFFLLQGDAKETIPNFLTECGASHLVTDFSPLREIRRCKDEVVKRTSDSLAIHEVDAHNVVPMWAASSKLEYSARTIRGKINKLLPDYLIEFPKLEPPKKKWTGMMDKKLVDWDSLIDKVVREGAEVPEIEWCVPGEDAGIEVLMGNKDGFLTKRLKNYSTDRNNPIKPKALSGLSPYLHFGQVSAQRCALEARKVRSTSPQAVDTFLEELIVRRELSDNFCYYQPHYDSLKGAWEWARKSLMDHASDKREHIYSLEQLEKGLTADPLWNASQLEMVYQGKMHGFMRMYWAKKILEWTKGPEEALSISIYLNNKYEIDGRDPSGYVGCMWSICGVHDQGWKERPVFGKIRYMNYAGCKRKFNVDSYISYVKSLVSVTKKKRKAEEQLTRDSVDPKITIV”, the protein production is reported as “failed”.

In the case of “MQPDTQEIVVDEVFPHAPETIWKTLTTAELMGRWLMMPAGFEPIEGKRFTYQTTPAGDWDGTIHCQVLEVKPNERLTYAWKGGHAGNTGYGSPLDTVVTFILSRAGNGTRLRLVHSGFVLPKNETAYRKMGEGWKKVVKNIGALAGGEDLEHHHHHH”, the protein production is reported as “failed”.

For “MNNLKKYTLVAVFVFLTAVCFQHPGITSAATTITIDPDATYQTIEGWGASICWWGNQIGRWSPDNRNRLIEKIVSPTDGLGYNIFRYNIGGGDNPGHNHMRDYADIQGYQNADRSWNWNADAAQRAVLTRLIERGRYYGSEIILEAFSNSPPYWMTKSGCASGTSDGSNNLRDDCYDDFADYLTEVVKHFRDAWGITFRTLEPMNEPNSDWWKAGGRQEGCSFSYANQQRIIKEVGEKLKAKGLTGTTVSAADEASIDTALEGLQSYDATTLSYMSQLNVHSYFGSKRAQLRDLAKSKGLRIWQSESGPLSFNGDMADSCIMLSKRIVTDLKELQCVAWLDWQIIDGGNWGSIYVDDASQTFTLTEKFYMHANYSRFIRPGYTIIGANNEKTIAAISPDKKKLVIVATNDNKSSSANYTFNLTRFSGVNSTVEVYRTSPSLSLAKSIITASNKIVSDTLPPYSINTYVITLDGGVESVPAVGLQSYNYPNRYVRHADFDARIDENVTPLEDSQWRLVPGLANSSEGYVSIQSVNYPGYYLRHWDYDFRLDKNDGTTIFAEDATFKLVPGLADPSCVSFQSYNYPDRYIRHYGYLLKLERISTDLDRQDATFLIISDDSPGPITDSGYIMAYFKQAPGEYGLNLCYSTDGLHWRNINDGKPVLYAQMGTKGIRDPYIFRKQDGKFGIVATDMLGTNWGDTSQYIHYWESEDLINFTERLIKVHNKSNMHAWAPEVFYDENRKQYGIYWAGNTDYNRIYVNYTTDFDTVSDCQVFFDPGYDVIDAHIVSDKGMYYLFFKDERASGKAIKVARSSSLTPNSFTVFTPNFITSPNTEGPFVFKDNNSDSWYMYVDIYSNNGIFECWKTNDLNALSWTKVTGISVPPGVRHGSVVKVNRWELETAISRKVVTPPAPTPPPVLKGDVNADGVINSSDIMVLKRFLLRTITLTEEMLLNADTNGDGAVNSSDFTLLKRYILRSIDSFPV”, the protein production was “failed”.

For “MDHHAQHHPRSHACVLPNGLRLHLAHDPAASRAAAWLRVAAGSHDEPSAHPGLAHFLEHLSFLGGAAFPGDERLMPWLQVRGGQVNASTLGKTTDYFFEVTAEHLGAGLARLIDMLARPLLDIDAQRREREVLEAEYLARSADEQTLIDAALALGLPAGHPLRRFAAGRRDSLALESDAFQRALREFHAAHYHAGNCQLWLQGPQTLDELERLAQRACADLPGRAPGASPPPPPLLPFACEALALRLPGPPRLVLGFALDALRGADEQTLLAFAELLGDRSPGGLLAALGEQGLGESVALRVVHRDARQALLALTFELFDGSAAAALEAAFFDWLGALRDDAASLLAARRPLLAEPTAPLERLRQRVLGLPAEIRPACLDALRADRCLRLHLDSELDGAEARWSAGFRLSVAPVAAAPPLAAQRHAWRFELPLPPSAAAEGALFLRWRFPGVPARSRFLALRQALRPLCGQARLGGVEMGLEALGEDWSLSLLGPRDRLEAAVRPALARLLAAPPDWRANGERLSSAERRRSATGLPIRQLLDALPGLLGEPLAEVDDWRRTRWDALVMQAAMPDPRWMPGQAAGERLEPLPPRPGRHRRELAVDGESALLLFCPLPTQEVPMEAAWRLLARLHEPAFQRRLRDELQLGYALFCGFREVGARRGLLFAAQSPRACPARLLEHMETFLQRSAEALAQLPARRLAGLRKALADDLRRAPGSFAERARRAWAEHLGGGAGRSRLLAEAALGLSGDDLLAAQARLLEARGGWWVLSSRR”, the protein production was “failed”.

In the case of “CSGKEALDYFKEDPQMFDMYHTGYQQQMSNWPELPVNSIINWLLSNSSSLVVADFGCGDARIAKSVKNKVFSFDLVSKNPSVIACDMSNTSLESSSVDVAVFCLSLMGTNYSSYIKEAHRVLRPSGMLLIAEVKSRFDPNNGGADPKDFVKAVCDLGFTSVLKDFSNKMFILFHFKKK”, the protein production is reported as “failed”.

In the case of “MIAMILVHPHIFWLSLGGLLLAAEMLGGNGYLLWSGVAAVITGLTVWLLPLGWEWQGVLFAALTLLAAWLWWRWLARRVREQKPTDSRLNQRGQQLVGRRFMLDAALVNGRGHMRVGDSSWPVCADEDLRAGTHVEVIAVEGITLRIRAV”, the protein production is reported as “failed”.

With “RPNVERDAQRRVNIRVTDEIVTALNERRIVMAFEPVVQAVSRAPAFHECLVRMKQDDGELLLAPDIVPVAEKLGLIRLVDHRVLELVVAELAAAPGVELSLNISPDTTMDADWWASIESLLGANPGVAERLIVEITETVAIQDLDDVRGFVNRLKNFGARIAIDDFGAGYTSFRNLRNLGVDIVKIDGAFVQNIARSADDRAFVQTLIDLARRLEIKTVAEWVQDEASAIMLRDWGCDYIQGRLIGLA” the protein production was “failed”.
